± gives the standard error. For some of these results: Fewer inactive variants are shown than the library holds.
B1: glmS ribozyme (parent)
chain: AUAAAAGCGCCAGAACUACAGAAAUGUAGUUGACGAGGAGGAGGUUUAUCGAAUUUUCGGCGGAUGCCUCCAAA

Columns and labels:
Details in all cases: with glucosamine-6-phosphate
[1] = variants of: B1; assay: kcat; higher = faster cleavage; RNA array
Outline: (§1)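 Barcoded ribozyme variants were transcribed in situ on sequenced MiSeq chips by E. coli RNA polymerase. At 37 °C, a hybridised Cy3 probe tracked them while glucosamine-6-phosphate (40 μM to 10 mM) in HEPES/KCl/Mg(OAc)2 buffer flowed in and tiles were imaged over ~14 h. Per-tile medians of signals normalised to baseline and to non-cleaving reference variants were fit to one- or two-exponential decays, giving kobs. kcat and KM came from weighted Michaelis–Menten fits across concentrations.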

[2] = variants of: B1; assay: KM; higher = weaker cofactor use; RNA array
Outline: as §1

[3] = variants of: B1; assay: self-cleavage kobs at 40 uM GlcN6P; higher = faster cleavage; RNA array
Outline: as §1

[4] = variants of: B1; assay: self-cleavage kobs at 160 uM GlcN6P; higher = faster cleavage; RNA array
Outline: as §1

[5] = variants of: B1; assay: self-cleavage kobs at 640 uM GlcN6P; higher = faster cleavage; RNA array
Outline: as §1

[6] = variants of: B1; assay: self-cleavage kobs at 2500 uM GlcN6P; higher = faster cleavage; RNA array
Outline: as §1

[7] = variants of: B1; assay: self-cleavage kobs at 10000 uM GlcN6P; higher = faster cleavage; RNA array
Outline: as §1

| Variant | kcat [1] | KM [2] | self-cleavage kobs at 40 uM GlcN6P [3] | self-cleavage kobs at 160 uM GlcN6P [4] | self-cleavage kobs at 640 uM GlcN6P [5] | self-cleavage kobs at 2500 uM GlcN6P [6] | self-cleavage kobs at 10000 uM GlcN6P [7] |
| --- | --- | --- | --- | --- | --- | --- | --- |
| U46C U47G | 0.0024 ± 0.00028 s⁻¹ | 2600 ± 440 µM | 3.18e-05 ± 8e-06 s⁻¹ | 0.00015 ± 2.6e-05 s⁻¹ | 0.000457 ± 8e-05 s⁻¹ | 0.0014 ± 0.00026 s⁻¹ | 0.00183 ± 0.00026 s⁻¹ |
| G43A U55A | 0.00026 ± 7.6e-05 s⁻¹ | – | – | – | – | – | 8.23e-05 ± 1.2e-05 s⁻¹ |
| U45C U55G | 0.0035 ± 0.0008 s⁻¹ | 2770 ± 960 µM | 6.05e-05 ± 8.1e-06 s⁻¹ | – | 0.000502 ± 9.9e-05 s⁻¹ | 0.00165 ± 0.00048 s⁻¹ | 0.00283 ± 0.00033 s⁻¹ |
| G44U U55A | 0.000317 ± 4.2e-05 s⁻¹ | 891 ± 390 µM | – | – | 0.000157 ± 4e-05 s⁻¹ | 0.000288 ± 4.6e-05 s⁻¹ | 0.000273 ± 3.2e-05 s⁻¹ |
| G44A U55G | 0.000367 ± 0.00015 s⁻¹ | – | – | – | 0.000141 ± 3.3e-05 s⁻¹ | 0.000228 ± 4.2e-05 s⁻¹ | – |
| U46A C58A | 2.63e-05 ± 4.4e-06 s⁻¹ | – | – | – | – | – | – |
| G43U U54A U55A C67G C68U | 0.000164 ± 6.5e-05 s⁻¹ | – | – | – | – | – | 7.92e-05 ± 2.1e-05 s⁻¹ |
| G43A U45G C58G | 2.82e-05 ± 8e-07 s⁻¹ | 199 ± 61 µM | – | – | – | – | – |
| U45G U54A | 0.00862 ± 0.0024 s⁻¹ | 2110 ± 950 µM | 0.000294 ± 6.7e-05 s⁻¹ | 0.000437 ± 0.00014 s⁻¹ | 0.00206 ± 0.00071 s⁻¹ | 0.00456 ± 0.0014 s⁻¹ | 0.00721 ± 0.0012 s⁻¹ |
| G43U A64G | 0.000133 ± 1.2e-05 s⁻¹ | 6370 ± 1300 µM | – | – | – | 3.85e-05 ± 8.6e-06 s⁻¹ | 8.1e-05 ± 8.2e-06 s⁻¹ |
| U47A C50A | 4.12e-05 ± 2e-06 s⁻¹ | 5840 ± 720 µM | – | – | – | – | 2.6e-05 ± 9.8e-06 s⁻¹ |
| U45G C70A | 0.000251 ± 5.4e-05 s⁻¹ | – | – | – | 0.000111 ± 2.5e-05 s⁻¹ | 0.000364 ± 0.00011 s⁻¹ | 0.000215 ± 4.3e-05 s⁻¹ |
| U45G C70U | 0.00681 ± 0.0021 s⁻¹ | 562 ± 260 µM | 0.000542 ± 5.6e-05 s⁻¹ | 0.00139 ± 0.00018 s⁻¹ | 0.00288 ± 0.0004 s⁻¹ | 0.00473 ± 0.00096 s⁻¹ | 0.0102 ± 0.0013 s⁻¹ |
| U46C U56G | 0.00195 ± 0.00027 s⁻¹ | 1390 ± 310 µM | 5.6e-05 ± 9.5e-06 s⁻¹ | 0.000159 ± 3e-05 s⁻¹ | 0.000736 ± 8.1e-05 s⁻¹ | 0.00128 ± 0.00017 s⁻¹ | 0.00164 ± 0.00018 s⁻¹ |
| U47A A64C | 0.000113 ± 8.6e-06 s⁻¹ | 720 ± 280 µM | – | – | 6.51e-05 ± 1.8e-05 s⁻¹ | 7.85e-05 ± 1.3e-05 s⁻¹ | 0.000109 ± 1.1e-05 s⁻¹ |
| U45A G59U | 0.00047 ± 0.00017 s⁻¹ | – | < 1e-05 s⁻¹ | – | – | 5.25e-05 ± 1.3e-05 s⁻¹ | 0.000152 ± 2.4e-05 s⁻¹ |
| U45A U46G | 0.0594 ± 0.012 s⁻¹ | 939 ± 230 µM | 0.00256 ± 0.00026 s⁻¹ | 0.00762 ± 0.0012 s⁻¹ | 0.0264 ± 0.006 s⁻¹ | 0.0366 ± 0.012 s⁻¹ | 0.0669 ± 0.021 s⁻¹ |

From the supplement of paper PMC7125110
